Source: patent US20150322162A1

What was measured:
[1] = biological target: HER2-Fc (#1129-ER, R&D Systems) (UniProt P04626); assay: SPR, Biacore T100; antibody captured by human Fab binder on CM5 chip, HER2-Fc injected
[2] = biological target: c-Met-Fc (#358-MT/CF, R&D Systems) (UniProt P08581); assay: SPR, Biacore T100; antibody captured by human Fab binder on CM5 chip, c-Met-Fc injected
Sequence of UniProt P08581 (P08581 25-932 limits assumed): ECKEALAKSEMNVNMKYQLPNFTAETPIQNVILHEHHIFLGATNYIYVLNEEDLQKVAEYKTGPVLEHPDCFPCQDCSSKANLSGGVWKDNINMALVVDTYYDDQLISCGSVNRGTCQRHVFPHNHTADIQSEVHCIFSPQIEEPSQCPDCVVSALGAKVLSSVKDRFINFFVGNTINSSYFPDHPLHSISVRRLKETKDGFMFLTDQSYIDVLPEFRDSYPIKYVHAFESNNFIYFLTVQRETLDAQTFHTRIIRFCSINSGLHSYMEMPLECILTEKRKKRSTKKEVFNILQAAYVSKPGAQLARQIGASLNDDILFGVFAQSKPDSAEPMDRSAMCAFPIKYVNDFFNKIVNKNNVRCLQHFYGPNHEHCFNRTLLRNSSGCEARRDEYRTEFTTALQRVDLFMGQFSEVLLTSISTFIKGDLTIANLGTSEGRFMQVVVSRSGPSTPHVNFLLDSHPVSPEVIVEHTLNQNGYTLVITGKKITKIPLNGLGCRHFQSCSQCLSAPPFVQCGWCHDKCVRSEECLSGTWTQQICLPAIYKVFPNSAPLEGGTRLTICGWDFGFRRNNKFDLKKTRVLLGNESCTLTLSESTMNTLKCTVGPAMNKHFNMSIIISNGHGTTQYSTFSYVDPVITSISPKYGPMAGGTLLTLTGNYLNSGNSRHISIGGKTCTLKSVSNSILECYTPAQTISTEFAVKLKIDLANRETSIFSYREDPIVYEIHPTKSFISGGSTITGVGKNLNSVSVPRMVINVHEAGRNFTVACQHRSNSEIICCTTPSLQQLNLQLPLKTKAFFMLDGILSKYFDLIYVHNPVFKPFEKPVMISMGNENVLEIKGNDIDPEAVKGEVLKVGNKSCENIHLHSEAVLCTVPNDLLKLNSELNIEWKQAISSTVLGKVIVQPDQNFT

Kd [1]	koff [1]	kon [1]	Kd [2]	koff [2]	kon [2]	Binder
< 10 pM	< 5.8e-05 s⁻¹	200000 M⁻¹ s⁻¹	40 pM	1.9e-05 s⁻¹	500000 M⁻¹ s⁻¹	MH2-12 anti-c-Met/anti-HER2 bispecific antibody (bispecific antibody, part only; not given: nothing needed for binding, IgG2, not shown: another chain or arm of the molecule; small tags and cut ends) heavy: EVQLVESGGGLVQPGGSLRLSCAASGFTFTDYYMSWVRQAPGKGLEWLGFIRNKANGYTTEYSASVKGRFTISRDNSKNTLYLQMNSLRAEDTAVYYCARDNWFAYWGQGTLVTVSSASTKGPSVFPLAPCSRSTSESTAALGCLVKDYFPEPVTVSWNSGALTSGVHTFPAVLQSSGLYSLSSVVTVPSSNFGTQTYTCNVDHKPSNTKVDKTVERKCCVECPPCPAPPVAGPSVFLFPPKPKDTLMISRTPEVTCVVVDVSHEDPEVQFNWYVDGVEVHNAKTKPREEQFNSTFRVVSVLTVVHQDWLNGKEYKCKVSNKGLPAPIEKTISKTKGQPREPQVYTLPPSREEMTKNQVSLTCLVKGFYPSDIAVEWESNGQPENNYKTTPPMLDSDGSFFLYSKLTVDKSRWQQGNVFSCSVMHEALHNHYTQKSLSLSPGKGGGGSGGGGSEVQLVQSGAEVKKPGESLKISCKGSGYSFTSYWIGWVRQMPGKGLEWMGIIYPGDSDTRYSPSFQGQVTISADKSISTAYLQWSSLKASDTAMYYCARHYYDSSGYSYFPDYWGQGTLVTVSS VL: QTVVTQEPSFSVSPGGTVTLTCGLSSGSVSTSYYPSWYQQTPGQAPRTLIYSTNTRSSGVPDRFSGSILGNKAALTITGAQADDESDYYCVLYMGSGIWVFGGGTKLTVL light: DIQMTQSPSSLSASVGDRVTITCKSSQSLLASGNQNNYLAWYQQKPGKAPKMLIIWASTRVSGVPSRFSGSGSGTDFTLTISSLQPEDFATYYCQQSYSRPYTFGQGTKVEIKRTVAAPSVFIFPPSDEQLKSGTASVVCLLNNFYPREAKVQWKVDNALQSGNSQESVTEQDSKDSTYSLSSTLTLSKADYEKHKVYACEVTHQGLSSPVTKSFNRGEC
< 10 pM	< 1.3e-05 s⁻¹	820000 M⁻¹ s⁻¹	30 pM	1.5e-05 s⁻¹	590000 M⁻¹ s⁻¹	MH2-18 anti-c-Met/anti-HER2 bispecific antibody (bispecific antibody, part only; not given: nothing needed for binding, IgG2, not shown: another chain or arm of the molecule; small tags and cut ends) heavy: EVQLVESGGGLVQPGGSLRLSCAASGFTFTDYYMSWVRQAPGKGLEWLGFIRNKANGYTTEYSASVKGRFTISRDNSKNTLYLQMNSLRAEDTAVYYCARDNWFAYWGQGTLVTVSSASTKGPSVFPLAPCSRSTSESTAALGCLVKDYFPEPVTVSWNSGALTSGVHTFPAVLQSSGLYSLSSVVTVPSSNFGTQTYTCNVDHKPSNTKVDKTVERKCCVECPPCPAPPVAGPSVFLFPPKPKDTLMISRTPEVTCVVVDVSHEDPEVQFNWYVDGVEVHNAKTKPREEQFNSTFRVVSVLTVVHQDWLNGKEYKCKVSNKGLPAPIEKTISKTKGQPREPQVYTLPPSREEMTKNQVSLTCLVKGFYPSDIAVEWESNGQPENNYKTTPPMLDSDGSFFLYSKLTVDKSRWQQGNVFSCSVMHEALHNHYTQKSLSLSPGKGGGGSGGGGSEVQLVQSGAEVKKPGESLKISCKGSGYSFTSYWIGWVRQMPGKGLEWMGIIYPGDSDTRYSPSFQGQVTISADKSISTAYLQWSSLKASDTAMYYCARLVVGANPPTYYFDYWGQGTLVTVSS VL: QAVVTQEPSFSVSPGGTVTLTCGLSSGSVSTSYYPSWYQQTPGQAPRTLIYSTNTRSSGVPDRFSGSILGNKAALTITGAQTDDESDYYCVLYMGSGISLFGGGTKVTVL light: DIQMTQSPSSLSASVGDRVTITCKSSQSLLASGNQNNYLAWYQQKPGKAPKMLIIWASTRVSGVPSRFSGSGSGTDFTLTISSLQPEDFATYYCQQSYSRPYTFGQGTKVEIKRTVAAPSVFIFPPSDEQLKSGTASVVCLLNNFYPREAKVQWKVDNALQSGNSQESVTEQDSKDSTYSLSSTLTLSKADYEKHKVYACEVTHQGLSSPVTKSFNRGEC
